# Measured values from patent US9284543B2, “Neutral active soluble truncated PH20 polypeptides and uses thereof” (Halozyme, Inc., priority 2008, dated 2016).
# How the values were obtained:
# [1] = Triton X-114 partition assay; type: physicochemical; details: partition into aqueous phase of Triton X-114 at 37° C.
# Method: Solubility of a hyaluronidase can be determined by any method known to one of the skill in the art. One method for determining solubility is by detergent partitioning. […] For example, the solubility of the PH20 polypeptides described herein is assessed as described in Example 4. Membrane-anchored hyaluronidases, such as lipid-anchored hyaluronidases, including GPI-anchored hyaluronidases, will partition into the detergent-rich phase, but will partition into the detergent-poor or aqueous phase following treatment with Phospholipase C. Phospholipase C is an enzyme that cleaves the […] found in GPI-anchored proteins. Treatment with PLC will cause release of GPI-linked proteins from the outer cell membrane.
# The samples were heated to 37° C. for 3 minutes to induce phase separation and centrifuged for 3 min at 4000 g at room temperature. Aqueous and detergent phases were removed for SDS-PAGE analysis and Western blotting. Rabbit anti-PH20 IgG (0.5 μg/mL) was used as the primary antibody and HRP-conjugated goat anti-Rabbit IgG (0.1 ng/mL, Cat#DC03L, EMD) was used as the secondary antibody. Full length human PH20, which partitions strongly into the detergent phase, was used as a control.
# [2] = Microtiter hyaluronidase activity assay with biotinylated-hyaluronic acid; type: biochemical; details: for pH 5.5 Activity / pH 7.4 Activity: 72 hour post transfection supernatant; for Hyaluronidase activity (in words): pH 7.4 and pH 5.5
# [3] = system: CHO-S cells; test: PI-PLC treatment of expressing cells, Western blot of media and cells; type: cell-based, Chinese Hamster; details: cells incubated with PI-PLC for 2 hours
# Method: In this example, following transient expression, as described in Example 2 above, the media and cells were harvested separately and analyzed for PH20 expression and solublility by Western blot analysis. Solubility of the C-terminus truncation mutants was determined by examining whether the expressed protein was present in the growth media or in the cells. […] Cells expressing these mutants were treated with phosphoinositol-phospholipase C (PI-PLC), which cleaves the GPI-anchor allowing the release of soluble protein into the media, and the presence of PH20 in the resulting media and cells was determined by Western blot analysis.
# Following expression of rHuPH20 in CHO—S cells for 72 hours, as described in Example 2A above, the media and cells were harvested separately. The cells were washed with serum-free media followed by the addition of 2 mL serum-free media per well. PI-PLC (0.5 units/well) was added to each well and the cells were incubated in the PI-PLC for 2 hours. The resultant media and cells were analyzed by Western blot analysis as described above.
# Two plates each of rHuPH20 expressing CHO—S cells, one for treatment with PI-PLC and one without treatment with PI-PLC, were prepared for each C-terminus mutant as described in Example 2B above. Following expression for 48 hours, for cells untreated with PI-PLC, the media and cells were harvested separately. The harvested media was spun down, concentrated to a volume of 10 mL, and buffer exchanged into PBS using an Amicon 30 kD MWCO concentrator. The cells were rinsed with cold PBS and scraped and resuspended in 1.2 mL PBS with protease inhibitor Set III (Cat No. 539134, Calbiochem). The resuspended cells were briefly sonicated to prepare whole-cell extract. For PI-PLC treatment of cells, following expression for 48 hours, the untreated media was harvested, as described above. The cells were rinsed once with fresh CD DG44 medium with Glutamax-1, and the media was replaced with 12 mL fresh detergent free CD DG44 medium supplemented with Glutamax-1 with 3.0 units PI-PLC per dish, and the cells were incubated for 2 hours at 37° C. with 5% CO2. After 2 hours, the PI-PLC media and cells were harvested separately, as described above. The resultant untreated media and cells, and PI-PLC treated media and cells, were analyzed by Western blot analysis as described above.
# [4] = system: CHO-S cells; test: Western blot analysis of PH20 expression in media and cells after transient expression; type: cell-based, Chinese Hamster; details: media versus cells
# In short: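 PH20 expression and solubility were judged by anti-PH20 Western blot of non-reduced media and cell fractions, with expression shown by a ~66 kDa band. Samples came from CHO-S cells transiently transfected (GeneJuice) with mutant PH20-HZ24 DNA and cultured 48-72 h. GPI-anchored mutants were cleaved with PI-PLC to release soluble protein.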
molecule,measurement,setting,value
"SPAM1-VSIL: C-terminally truncated human PH20, precursor 499 aa (SEQ ID NO:7), mature 464 aa (SEQ ID NO:59) (protein, listed as Homo sapiens, mature HuPH20 36-499) LNFRAPPVIPNVPFLWAWNAPSEFCLGKFDEPLDMSLFSFIGSPRINATGQGVTIFYVDRLGYYPYIDSITGVTVNGGIPQKISLQDHLDKAKKDITFYMPVDNLGMAVIDWEEWRPTWARNWKPKDVYKNRSIELVQQQNVQLSLTEATEKAKQEFEKAGKDFLVETIKLGKLLRPNHLWGYYLFPDCYNHHYKKPGYNGSCFNVEIKRNDDLSWLWNESTALYPSIYLNTQQSPVAATLYVRNRVREAIRVSKIPDAKSPLPVFAYTRIVFTDQVLKFLSQDELVYTFGETVALGASGIVIWGTLSIMRSMKSCLLLDNYMETILNPYIINVTLAAKMCSQVLCQEQGVCIRKNWNSSDYLHLNPDNFAIQLEKGGKFTVRGKPTLEDLEQFSEKFYCSCYSTLSCKEKADVKDTDAVDVCIADGVCIDAFLKPPMETEEPQIFYNASPSTLSATMFIVSIL",Soluble,[1],YES
same,pH 5.5 Activity,[2]; Table 6,0.045 Units/ml
same,pH 7.4 Activity,[2]; Table 6,0.02025 Units/ml
same,pH 5.5 Activity,[2]; Table 6A,0.122 Units/ml
same,pH 7.4 Activity,[2]; Table 6A,0.486 Units/ml
same,Hyaluronidase activity (in words),[2],little detectable activity
same,Expressed in Media Following Addition of PI-PLC,[3],Initially in media
same,Expressed in Media,[4],YES
"SPAM1-VASL: full length human PH20, precursor 509 aa (SEQ ID NO:1), mature 474 aa (SEQ ID NO:108) (protein, listed as Homo sapiens, Human PH20 cDNA encoding amino acids 1-509) MGVLKFKHIFFRSFVKSSGVSQIVFTFLLIPCCLTLNFRAPPVIPNVPFLWAWNAPSEFCLGKFDEPLDMSLFSFIGSPRINATGQGVTIFYVDRLGYYPYIDSITGVTVNGGIPQKISLQDHLDKAKKDITFYMPVDNLGMAVIDWEEWRPTWARNWKPKDVYKNRSIELVQQQNVQLSLTEATEKAKQEFEKAGKDFLVETIKLGKLLRPNHLWGYYLFPDCYNHHYKKPGYNGSCFNVEIKRNDDLSWLWNESTALYPSIYLNTQQSPVAATLYVRNRVREAIRVSKIPDAKSPLPVFAYTRIVFTDQVLKFLSQDELVYTFGETVALGASGIVIWGTLSIMRSMKSCLLLDNYMETILNPYIINVTLAAKMCSQVLCQEQGVCIRKNWNSSDYLHLNPDNFAIQLEKGGKFTVRGKPTLEDLEQFSEKFYCSCYSTLSCKEKADVKDTDAVDVCIADGVCIDAFLKPPMETEEPQIFYNASPSTLSATMFIVSILFLIISSVASL",Soluble,[1]; listed as Full length PH20,insoluble
same,pH 5.5 Activity,[2]; Table 6,0.891 Units/ml
same,pH 7.4 Activity,[2]; Table 6,1.8045 Units/ml
same,Expressed in Media Following Addition of PI-PLC,[3],YES
"SPAM1-SILF: C-terminally truncated human PH20, precursor 500 aa (SEQ ID NO:48), mature 465 aa (SEQ ID NO:100) (protein, listed as Homo sapiens, HuPH20 precursor 1-500; Mature HuPH20 36-500) chain 1: MGVLKFKHIFFRSFVKSSGVSQIVFTFLLIPCCLTLNFRAPPVIPNVPFLWAWNAPSEFCLGKFDEPLDMSLFSFIGSPRINATGQGVTIFYVDRLGYYPYIDSITGVTVNGGIPQKISLQDHLDKAKKDITFYMPVDNLGMAVIDWEEWRPTWARNWKPKDVYKNRSIELVQQQNVQLSLTEATEKAKQEFEKAGKDFLVETIKLGKLLRPNHLWGYYLFPDCYNHHYKKPGYNGSCFNVEIKRNDDLSWLWNESTALYPSIYLNTQQSPVAATLYVRNRVREAIRVSKIPDAKSPLPVFAYTRIVFTDQVLKFLSQDELVYTFGETVALGASGIVIWGTLSIMRSMKSCLLLDNYMETILNPYIINVTLAAKMCSQVLCQEQGVCIRKNWNSSDYLHLNPDNFAIQLEKGGKFTVRGKPTLEDLEQFSEKFYCSCYSTLSCKEKADVKDTDAVDVCIADGVCIDAFLKPPMETEEPQIFYNASPSTLSATMFIVSILF chain 2: LNFRAPPVIPNVPFLWAWNAPSEFCLGKFDEPLDMSLFSFIGSPRINATGQGVTIFYVDRLGYYPYIDSITGVTVNGGIPQKISLQDHLDKAKKDITFYMPVDNLGMAVIDWEEWRPTWARNWKPKDVYKNRSIELVQQQNVQLSLTEATEKAKQEFEKAGKDFLVETIKLGKLLRPNHLWGYYLFPDCYNHHYKKPGYNGSCFNVEIKRNDDLSWLWNESTALYPSIYLNTQQSPVAATLYVRNRVREAIRVSKIPDAKSPLPVFAYTRIVFTDQVLKFLSQDELVYTFGETVALGASGIVIWGTLSIMRSMKSCLLLDNYMETILNPYIINVTLAAKMCSQVLCQEQGVCIRKNWNSSDYLHLNPDNFAIQLEKGGKFTVRGKPTLEDLEQFSEKFYCSCYSTLSCKEKADVKDTDAVDVCIADGVCIDAFLKPPMETEEPQIFYNASPSTLSATMFIVSILF",Soluble,[1],YES
same,pH 5.5 Activity,[2]; Table 6A,0.162 Units/ml
same,pH 7.4 Activity,[2]; Table 6A,0.365 Units/ml
same,Hyaluronidase activity (in words),[2],little detectable activity
same,Expressed in Media Following Addition of PI-PLC,[3],Initially in media
same,Expressed in Media,[4],WEAK/YES
"SPAM1-IVSI: C-terminally truncated human PH20, precursor 498 aa (SEQ ID NO:49), mature 463 aa (SEQ ID NO:101) (protein, listed as Homo sapiens, HuPH20 precursor 1-498; Mature HuPH20 36-498) chain 1: MGVLKFKHIFFRSFVKSSGVSQIVFTFLLIPCCLTLNFRAPPVIPNVPFLWAWNAPSEFCLGKFDEPLDMSLFSFIGSPRINATGQGVTIFYVDRLGYYPYIDSITGVTVNGGIPQKISLQDHLDKAKKDITFYMPVDNLGMAVIDWEEWRPTWARNWKPKDVYKNRSIELVQQQNVQLSLTEATEKAKQEFEKAGKDFLVETIKLGKLLRPNHLWGYYLFPDCYNHHYKKPGYNGSCFNVEIKRNDDLSWLWNESTALYPSIYLNTQQSPVAATLYVRNRVREAIRVSKIPDAKSPLPVFAYTRIVFTDQVLKFLSQDELVYTFGETVALGASGIVIWGTLSIMRSMKSCLLLDNYMETILNPYIINVTLAAKMCSQVLCQEQGVCIRKNWNSSDYLHLNPDNFAIQLEKGGKFTVRGKPTLEDLEQFSEKFYCSCYSTLSCKEKADVKDTDAVDVCIADGVCIDAFLKPPMETEEPQIFYNASPSTLSATMFIVSI chain 2: LNFRAPPVIPNVPFLWAWNAPSEFCLGKFDEPLDMSLFSFIGSPRINATGQGVTIFYVDRLGYYPYIDSITGVTVNGGIPQKISLQDHLDKAKKDITFYMPVDNLGMAVIDWEEWRPTWARNWKPKDVYKNRSIELVQQQNVQLSLTEATEKAKQEFEKAGKDFLVETIKLGKLLRPNHLWGYYLFPDCYNHHYKKPGYNGSCFNVEIKRNDDLSWLWNESTALYPSIYLNTQQSPVAATLYVRNRVREAIRVSKIPDAKSPLPVFAYTRIVFTDQVLKFLSQDELVYTFGETVALGASGIVIWGTLSIMRSMKSCLLLDNYMETILNPYIINVTLAAKMCSQVLCQEQGVCIRKNWNSSDYLHLNPDNFAIQLEKGGKFTVRGKPTLEDLEQFSEKFYCSCYSTLSCKEKADVKDTDAVDVCIADGVCIDAFLKPPMETEEPQIFYNASPSTLSATMFIVSI",Soluble,[1],YES
same,pH 5.5 Activity,[2]; Table 6A,0.203 Units/ml
same,pH 7.4 Activity,[2]; Table 6A,0.527 Units/ml
same,Hyaluronidase activity (in words),[2],little detectable activity
same,Expressed in Media Following Addition of PI-PLC,[3],Initially in media
same,Expressed in Media,[4],YES
